From paper PMC11532494 (Nature Communications, 2024)
Several values for one entry are separate records, joined by “and”; a condition that tells them apart may be missing. Equal entries are not always repeated. Where two headings read alike, the source gives them in different places. No end group written: not given here. *: point of attachment. AMC = Cc1cc(=O)oc2cc(N*)ccc12

Assays:
Controls [1] = assay type: biochemical
KpHdaH (1b) = KpHdaH (1b) (Klebsiella pneumoniae, UniProt A0A377Z5F6); assay type: biochemical; conditions: for RFU means, KpHdaH (1b) / RFU*2 means, KpHdaH (1b): means of two measurements; for [AMC] (nM), KpHdaH (1b), means / [AMC] (nM), KpHdaH (1b): substrate screening; for [AMC] (nM), KpHdaH (1b), means: mean of two measurements
BsAcuC (2c) = biological target: T1, BsAcuC (2c) (Bacillus subtilis, UniProt P39067); experiment: Substrate screening assay (acyl-peptide-AMC); assay type: biochemical; conditions: for RFU means, BsAcuC (2c) / RFU*2 means, BsAcuC (2c): means of two measurements; for [AMC] (nM), BsAcuC (2c), means: substrate screening, mean of two measurements
T1 construct: made in house; host or cells: E. coli BL21 (DE3)
T1 sequence (P39067 1-387): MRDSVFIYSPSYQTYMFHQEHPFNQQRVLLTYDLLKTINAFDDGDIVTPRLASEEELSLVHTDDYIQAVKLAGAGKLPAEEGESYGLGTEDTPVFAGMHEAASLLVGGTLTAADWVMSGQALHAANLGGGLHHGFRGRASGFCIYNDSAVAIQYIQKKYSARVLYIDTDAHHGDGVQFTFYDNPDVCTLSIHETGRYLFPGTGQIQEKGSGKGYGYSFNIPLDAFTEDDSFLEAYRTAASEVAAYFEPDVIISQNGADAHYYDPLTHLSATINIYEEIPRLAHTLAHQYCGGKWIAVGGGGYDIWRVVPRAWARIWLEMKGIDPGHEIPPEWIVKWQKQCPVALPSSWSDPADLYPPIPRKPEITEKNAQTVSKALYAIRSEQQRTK
Method: (§1) Experiments with SIRT2 and SIRT5 were supplemented with NAD^+ (500 µM). Thereafter, a solution of trypsin (25 µL, 5.0 mg/mL; final concentration of 2.5 mg/mL) was added, and the development of the assay was allowed to proceed for 90 min at room temperature before fluorescence analysis. […] To this end, a single category is given to all conversions >48% on the heatmap. […] For the H4-derived peptide LGKbio no positive control was available.

VcHdaH (5b) = assay type: biochemical, Vibrio cholerae; conditions: for RFU means, VcHdaH (5b) / RFU*2 means, VcHdaH (5b): means of two measurements; for [AMC] (nM), VcHdaH (5b), means: substrate screening, mean of two measurements
VsHdaH (1b) = assay type: biochemical, Vibrio sp.; conditions: for RFU means, VsHdaH (1b) / RFU*2 means, VsHdaH (1b): means of two measurements; for [AMC] (nM), VsHdaH (1b), means / [AMC] (nM), VsHdaH (1b): substrate screening; for [AMC] (nM), VsHdaH (1b), means: mean of two measurements
PsApaH (4) = PsApaH (4) (Pseudomonas sp. M30-35, UniProt A0A1Y0KY79); assay type: biochemical; conditions: for RFU means, PsApaH (4) / RFU*2 means, PsApaH (4): means of two measurements; for [AMC] (nM), PsApaH (4), means / [AMC] (nM), PsApaH (4): substrate screening; for [AMC] (nM), PsApaH (4), means: mean of two measurements
Method: as §1

LcApaH (3) = LcApaH (3) (Legionella cherrii, UniProt A0A0W0SGS1); assay type: biochemical
RwDmhA (1b) = RwDmhA (1b) (Rhizorhabdus wittichii, UniProt A0A067XIQ6); assay type: biochemical
LpApaH (3) = LpApaH (3) (Legionella pneumophila, UniProt A0A2S6EWV0); assay type: biochemical
Controls [2] = assay type: biochemical; remark: listed apart in the source
RsPrpH (1b) = experiment: Substrate screening assay (acyl-peptide-AMC); assay type: biochemical, Rhizorhabdus sp.
[3] = two measurements, single values
[4] = substrate screening, mean of two measurements
[5] = substrate screening, measurement 1 of two
[6] = substrate screening, measurement 2 of two

QPKKlau (QPKK-{AMC}; not fully specified (residue 4); printed as QPKKlau; also: lauroyl-lysine (which Lys not given here); UniProt P04637 317-320, looked up, fragment)
[AMC] (nM), controls, means (Controls [1]): 11337.89 nM
RFU means, KpHdaH (1b) (KpHdaH (1b)): -136.5 RFU
RFU*2 means, KpHdaH (1b) (KpHdaH (1b)): -273 RFU*2
[AMC] (nM), KpHdaH (1b), means (KpHdaH (1b)): -133.30 nM
[AMC] (nM), KpHdaH (1b) (KpHdaH (1b); measurement 1 of two): -172.85 nM
[AMC] (nM), KpHdaH (1b) (KpHdaH (1b); measurement 2 of two): -93.75 nM
RFU means, BsAcuC (2c) (BsAcuC (2c)): 849.5 RFU
RFU*2 means, BsAcuC (2c) (BsAcuC (2c)): 1699 RFU*2
[AMC] (nM), BsAcuC (2c), means (BsAcuC (2c)): 829.59 nM
RFU*2, BsAcuC (2c) (BsAcuC (2c); [3]): 2008 RFU*2 and 1390 RFU*2
RFU means, VcHdaH (5b) (VcHdaH (5b)): -82 RFU
RFU*2 means, VcHdaH (5b) (VcHdaH (5b)): -164 RFU*2
[AMC] (nM), VcHdaH (5b), means (VcHdaH (5b)): -80.08 nM
RFU means, VsHdaH (1b) (VsHdaH (1b)): -74 RFU
RFU*2 means, VsHdaH (1b) (VsHdaH (1b)): -148 RFU*2
[AMC] (nM), VsHdaH (1b), means (VsHdaH (1b)): -72.27 nM
[AMC] (nM), VsHdaH (1b) (VsHdaH (1b); measurement 1 of two): -150.39 nM
[AMC] (nM), VsHdaH (1b) (VsHdaH (1b); measurement 2 of two): 5.86 nM
RFU means, PsApaH (4) (PsApaH (4)): 131 RFU
RFU*2 means, PsApaH (4) (PsApaH (4)): 262 RFU*2
[AMC] (nM), PsApaH (4), means (PsApaH (4)): 127.93 nM
[AMC] (nM), PsApaH (4) (PsApaH (4); measurement 1 of two): 191.41 nM
[AMC] (nM), PsApaH (4) (PsApaH (4); measurement 2 of two): 64.45 nM
RFU means, LcApaH (3) (LcApaH (3)): 6.5 RFU
RFU*2 means, LcApaH (3) (LcApaH (3)): 13 RFU*2
[AMC] (nM), LcApaH (3), means (LcApaH (3)): 6.35 nM
RFU means, RwDmhA (1b) (RwDmhA (1b)): -41 RFU
RFU*2 means, RwDmhA (1b) (RwDmhA (1b)): -82 RFU*2
[AMC] (nM), RwDmhA (1b), means (RwDmhA (1b)): -40.04 nM
RFU means, LpApaH (3) (LpApaH (3)): 10.5 RFU
RFU*2 means, LpApaH (3) (LpApaH (3)): 21 RFU*2
[AMC] (nM), LpApaH (3), means (LpApaH (3)): 10.25 nM
RFU means, controls (Controls [2]): 11610 RFU
RFU*2, controls (Controls [2]): 21150 RFU*2 and 25290 RFU*2
RFU*2 means, controls (Controls [2]): 23220 RFU*2
RFU, controls (Controls [2]): 10575 RFU and 12645 RFU
RFU means, RsPrpH (1b) (RsPrpH (1b)): -143.5 RFU
RFU*2 means, RsPrpH (1b) (RsPrpH (1b)): -287 RFU*2
[AMC] (nM), RsPrpH (1b), means (RsPrpH (1b)): -140.14 nM

QPKKmyr (QPKK-{AMC}; not fully specified (residue 4); printed as QPKKmyr; also: myristoyl-lysine (which Lys not given here); UniProt P04637 317-320, looked up, fragment)
[AMC] (nM), controls, means (Controls [1]): 6615.23 nM
RFU means, KpHdaH (1b) (KpHdaH (1b)): 147 RFU
RFU*2 means, KpHdaH (1b) (KpHdaH (1b)): 294 RFU*2
[AMC] (nM), KpHdaH (1b), means (KpHdaH (1b)): 143.55 nM
[AMC] (nM), KpHdaH (1b) (KpHdaH (1b); measurement 1 of two): 173.83 nM
[AMC] (nM), KpHdaH (1b) (KpHdaH (1b); measurement 2 of two): 113.28 nM
RFU*2, KpHdaH (1b) (KpHdaH (1b); [3]): 356 RFU*2 and 232 RFU*2
RFU, KpHdaH (1b) (KpHdaH (1b); [3]): 178 RFU and 116 RFU
RFU means, BsAcuC (2c) (BsAcuC (2c)): 540 RFU
RFU*2 means, BsAcuC (2c) (BsAcuC (2c)): 1080 RFU*2
[AMC] (nM), BsAcuC (2c), means (BsAcuC (2c)): 527.34 nM
RFU means, VcHdaH (5b) (VcHdaH (5b)): -187.5 RFU
RFU*2 means, VcHdaH (5b) (VcHdaH (5b)): -375 RFU*2
[AMC] (nM), VcHdaH (5b), means (VcHdaH (5b)): -183.11 nM
RFU means, VsHdaH (1b) (VsHdaH (1b)): -206 RFU
RFU*2 means, VsHdaH (1b) (VsHdaH (1b)): -412 RFU*2
[AMC] (nM), VsHdaH (1b), means (VsHdaH (1b)): -201.17 nM
[AMC] (nM), VsHdaH (1b) (VsHdaH (1b); measurement 1 of two): 172.85 nM
[AMC] (nM), VsHdaH (1b) (VsHdaH (1b); measurement 2 of two): -575.20 nM
RFU means, PsApaH (4) (PsApaH (4)): 76.5 RFU
RFU*2 means, PsApaH (4) (PsApaH (4)): 153 RFU*2
[AMC] (nM), PsApaH (4), means (PsApaH (4)): 74.71 nM
[AMC] (nM), PsApaH (4) (PsApaH (4); measurement 1 of two): 39.06 nM
[AMC] (nM), PsApaH (4) (PsApaH (4); measurement 2 of two): 110.35 nM
RFU means, LcApaH (3) (LcApaH (3)): 256.5 RFU
RFU*2 means, LcApaH (3) (LcApaH (3)): 513 RFU*2
[AMC] (nM), LcApaH (3), means (LcApaH (3)): 250.49 nM
RFU means, RwDmhA (1b) (RwDmhA (1b); means of two measurements): -605.5 RFU
RFU*2 means, RwDmhA (1b) (RwDmhA (1b); means of two measurements): -1211 RFU*2
[AMC] (nM), RwDmhA (1b), means (RwDmhA (1b); [4]): -591.31 nM
[AMC] (nM), RwDmhA (1b) (RwDmhA (1b); [5]): -337.89 nM
[AMC] (nM), RwDmhA (1b) (RwDmhA (1b); [6]): -844.73 nM
RFU means, LpApaH (3) (LpApaH (3)): 459 RFU
RFU*2, LpApaH (3) (LpApaH (3)): 820 RFU*2 and 1016 RFU*2
RFU*2 means, LpApaH (3) (LpApaH (3)): 918 RFU*2
RFU, LpApaH (3) (LpApaH (3)): 410 RFU and 508 RFU
[AMC] (nM), LpApaH (3) (LpApaH (3)): 400.39 nM and 496.09 nM
[AMC] (nM), LpApaH (3), means (LpApaH (3)): 448.24 nM
RFU means, controls (Controls [2]): 6774 RFU
RFU*2, controls (Controls [2]): 12310 RFU*2 and 14786 RFU*2
RFU*2 means, controls (Controls [2]): 13548 RFU*2
RFU, controls (Controls [2]): 6155 RFU and 7393 RFU
RFU means, RsPrpH (1b) (RsPrpH (1b); means of two measurements): -466 RFU
RFU*2 means, RsPrpH (1b) (RsPrpH (1b); means of two measurements): -932 RFU*2
[AMC] (nM), RsPrpH (1b), means (RsPrpH (1b); [4]): -455.08 nM
[AMC] (nM), RsPrpH (1b) (RsPrpH (1b); [5]): -105.47 nM
[AMC] (nM), RsPrpH (1b) (RsPrpH (1b); [6]): -804.69 nM
